Experimental data: publication PMC4412574, “On-Off Kinetics of Engagement of FNI Modules of Soluble Fibronectin by β-Strand Addition” (PLoS ONE, 2015)
Peptide text beside a SMILES is read from it.

What was measured:
[1] = target: T1, plasma FN (Homo sapiens, UniProt P02751); test: Stopped-flow fluorimetry (crossed polarizers), direct binding of AFpolypeptide to a series of FN concentrations; conditions: as restated in text from Table 1; read-out: k on of FN-AFpolypeptide interaction
Description: (§1) Measurements were in TBS with 100mM NaCl at 25°C. Reactants separated in two syringes were injected by SFA-20 rapid kinetics accessory (Hi-Tech Scientific, Salisbury, England) into the cuvette for mixing in QuantaMaster 300 spectrofluorimeter (Photon Technology International, Edison, New Jersey) with excitation and emission polarizers of 90 degree. The excitation and emission wavelength were 485nm and 535 nm respectively. Upon mixing the fluorescence intensity were recorded at a rate of 10 points/sec during the reaction procedure. In the absence of FN or FN70K, there was no change in fluorescence polarization for any of the AFpolypeptides.
In direct binding assays, AFFUD, AFHADD, AFFRD or AFBbk32, 10 nM, was mixed with a series of FN concentrations or with FN70K at 100 nM. AFΔBbk32 was studied only with FN at 100 nM. For each experiment, four or five curves were generated, and k obs was calculated by F(t) = Fmin+(Fmax-Fmin)e^-kobst (1) where F(t) is fluorescence intensity at time point t. Fmax or Fmin is maximum or minimum fluorescence intensity, and the rate constant k is k obs. […]
Stopped-flow fluorimetry with crossed-polarizers was performed to study on-off kinetics of the FN-AFpolypeptide interactions. Upon mixing 10 nM AFFUD, AFHADD, AFFRD or AFBbk32 with increasing concentration (100, 200, 300, 400, or 500 nM) of FN, decreases of fluorescence intensity were observed (Fig 3). […]

[2] = target: T1, plasma FN; test: Stopped-flow displacement of AFpolypeptide from FN complex by unlabeled polypeptide (or size exclusion chromatography); type: binding; conditions: 1 μM unlabeled polypeptide, over 180 sec (Fig 3E-H)
Description: as §1
In displacement assays, unlabeled FUD, HADD, FRD, Bbk32, or ΔBbk32 in 10-fold molar excess of FN or FN70K was mixed with complex of AFpolypeptide and FN or FN70K. For ΔBbk32, only displacement from FN was measured. The k off value is calculated by Ft = Fmin+Fmax-Fmin1-e^-kofft (3) in which k off is the dissociation rate constant. The k on of FN70K-AFpolypeptide was determined by Eq based on [FN70K] and the k off of FN70K-AFpolypeptide obtained from Eq.
Fractions of 0.5 ml were collected and assayed. FN was monitored by absorbance at 280 nm by NanoDrop 2000 UV-Vis Spectrophotometer (Thermo Scientific, Wilmington, DE) and AFpolypeptide by Tecan Genios Pro microplate reader with excitation 485 nm and emission 535 nm. […]

[3] = target: T2, FN70K fragment (Homo sapiens, UniProt P02751); test: Size exclusion chromatography of FN70K-AFpolypeptide complex; type: binding; conditions: data not shown, read-out: k off estimated from size exclusion chromatography
T2 construct: the FN70K domain comprising the N-terminal ^1-9FNI and ^1-2FNII modules of FN; from tissue; host or cells: proteolytic fragment of FN
T2 sequence (P02751 32-609 limits assumed): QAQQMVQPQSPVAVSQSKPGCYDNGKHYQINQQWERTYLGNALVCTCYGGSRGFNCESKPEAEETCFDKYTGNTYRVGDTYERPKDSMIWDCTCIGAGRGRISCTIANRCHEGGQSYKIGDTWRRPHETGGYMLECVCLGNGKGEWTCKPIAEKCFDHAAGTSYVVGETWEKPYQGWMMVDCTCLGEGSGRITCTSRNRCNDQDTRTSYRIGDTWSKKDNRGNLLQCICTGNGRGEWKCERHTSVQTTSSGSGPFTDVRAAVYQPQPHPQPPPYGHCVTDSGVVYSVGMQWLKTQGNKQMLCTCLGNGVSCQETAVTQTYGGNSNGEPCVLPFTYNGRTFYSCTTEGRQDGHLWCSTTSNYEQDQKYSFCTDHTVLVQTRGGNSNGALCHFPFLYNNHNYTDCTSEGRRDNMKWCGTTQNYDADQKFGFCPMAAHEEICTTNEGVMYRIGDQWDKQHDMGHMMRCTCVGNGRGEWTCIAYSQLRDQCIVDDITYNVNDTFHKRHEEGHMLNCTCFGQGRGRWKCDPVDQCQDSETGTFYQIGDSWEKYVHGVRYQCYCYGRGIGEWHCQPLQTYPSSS
Description: (§2) Fractions of 0.5 ml were collected and assayed. FN was monitored by absorbance at 280 nm by NanoDrop 2000 UV-Vis Spectrophotometer (Thermo Scientific, Wilmington, DE) and AFpolypeptide by Tecan Genios Pro microplate reader with excitation 485 nm and emission 535 nm. FN, AFFUD or AFBbk32 was analyzed by itself as a control. The k off of FN-AFFUD complex was estimated by estimating the lower limit of half-life (t1/2) of complex decay and the following equation: t1/2 = 0.693/koff (4)
(§3) To corroborate the estimates from stopped-flow fluorimetry of k off for the FN-FUD or FN-Bbk32 interaction by a second method, size exclusion chromatography of the FN-AFFUD or FN-AFBbk32 complex was carried out. […] Elution patterns of FN alone (Fig 6C), AFFUD alone (Fig 6D), and AFBbk32 alone (Fig 6E) are also shown. FN eluted at 20 min. We estimate, therefore, that the half-life of FN-AFFUD is longer than 20 min and, according to Eq, the k off of FN-AFFUD is < 10^-3 s^-1, which is more than 20-fold slower than that estimated for FN-AFBbk32 by Eq or the displacement experiment (Table 1).

[4] = target: T1, plasma FN; test: Size exclusion chromatography of FN-AFpolypeptide complex; type: binding; conditions: from half-life lower limit by Eq 4, read-out: k off estimated from size exclusion chromatography
Description: as §2, §3
Fig 6 FPLC size exclusion of FN-AFFUD or FN-AFBbk32 complex. […] Absorbance at 280nm (A^280nm), and emission at 535 nm upon excitation at 485 nm (E^535nm) were measured to estimate, respectively, concentration of FN and AFpolypeptide and expressed relative to the values in starting material. […]

[5] = target: plasma fibronectin (FN) (UniProt P02751); test: SEC; 400 nM FN and 40 nM AFFUD or AFBbk32 mixed 30 min in TBS with 100 mM NaCl, Superose 6 10/300 at 0.5 ml/min; FN by A280, AFpolypeptide by fluorescence; koff from the lower limit of the half-life
[6] = target: FN70K fragment (N-terminal 70-kDa region of fibronectin); test: fluorescence polarisation; stopped-flow with crossed polarizers, direct binding at a single concentration: 10 nM AFpolypeptide mixed with 100 nM FN70K; kon from kobs and the koff of displacement (koff taken as 0 for FUD and HADD); TBS with 100 mM NaCl, 25°C
[7] = target: plasma fibronectin (FN) (UniProt P02751); test: fluorescence polarisation; stopped-flow with crossed polarizers, direct binding: 10 nM AFpolypeptide mixed with 100, 200, 300, 400 or 500 nM FN; kobs against [FN], kon from the slope, koff from the y-intercept; TBS with 100 mM NaCl, 25°C
[8] = target: FN70K fragment (N-terminal 70-kDa region of fibronectin); test: SEC; data not shown: the same size exclusion experiment as for FN-AFFUD, with FN70K-AFFUD, FN-AFHADD or FN70K-AFHADD
[9] = target: plasma fibronectin (FN) (UniProt P02751); test: fluorescence polarisation; stopped-flow with crossed polarizers, displacement: 10 nM AFpolypeptide pre-mixed 30 min with 100 nM FN or FN70K, then 1 uM of the same unlabeled polypeptide; single exponential fit; TBS with 100 mM NaCl, 25°C
[10] = target: FN70K fragment (N-terminal 70-kDa region of fibronectin); test: fluorescence polarisation + SEC; KD limit calculated as koff/kon from the stopped-flow on-rate and the upper limit of koff by chromatography
[11] = target: plasma fibronectin (FN) (UniProt P02751); test: as above
[12] = target: plasma fibronectin (FN) (UniProt P02751); test: SEC; data not shown: the same size exclusion experiment as for FN-AFFUD, with FN70K-AFFUD, FN-AFHADD or FN70K-AFHADD
[13] = target: FN70K fragment (N-terminal 70-kDa region of fibronectin); test: fluorescence polarisation; stopped-flow with crossed polarizers, displacement: 10 nM AFpolypeptide pre-mixed 30 min with 100 nM FN or FN70K, then 1 uM of the same unlabeled polypeptide; single exponential fit; TBS with 100 mM NaCl, 25°C
[14] = target: FN70K fragment (N-terminal 70-kDa region of fibronectin); test: fluorescence polarisation; KD calculated as koff/kon from the stopped-flow on-rate and the off-rate of the stopped-flow displacement
[15] = target: plasma fibronectin (FN) (UniProt P02751); test: as above
[16] = target: plasma fibronectin (FN) (UniProt P02751); test: fluorescence polarisation; stopped-flow with crossed polarizers, displacement: 10 nM AFpolypeptide pre-mixed 30 min with 100 nM FN or FN70K, then 1 uM of the same unlabeled polypeptide; single exponential fit; TBS with 100 mM NaCl, 25°C; remark: listed apart in the source
[17] = target: plasma fibronectin (FN) (UniProt P02751); test: ELISA; competitive: FN coated on 96-well plate (50 ul, 20 nM); 0.5 nM b-FUD or b-Bbk32 mixed with unlabeled FUD or Bbk32 at 1, 10, 100 or 1000 nM, 1 h; bound biotinylated polypeptide detected with enzyme-conjugated (strept)avidin

T1 sequence (P02751 32-609): as the sequence (P02751 32-609 limits assumed) above

Question: What does the source list for `C[C@H](N)C(=O)N[C@@H](Cc1ccccc1)C(=O)N[C@@H](Cc1c[nH]cn1)C(=O)N[C@@H](C)C(=O)N[C@@H](CC(=O)O)C(=O)N[C@@H](CC(=O)O)C(=O)O` [AFHADD] (H-AFHADD-OH)?
Answer: kon [1]: 430000 M⁻¹ s⁻¹; reversal of fluorescence intensity decrease on displacement [2]: less than 10%; koff [3]: < 0.001 s⁻¹; koff [4]: < 0.001 s⁻¹

Question: Which results are given for “AFFUD (FUD labeled with Alexa 488 on the N-terminal cysteine) (domain or fragment)”?
Answer: half-life of the complex [5]: > 20 min; koff [5]: < 0.001 s⁻¹; percent of AFFUD eluting with FN [5]: 100%; kon [6]: 3.9e+06 M⁻¹ s⁻¹; kon [7]: 390000 M⁻¹ s⁻¹; koff [8]: < 0.001 s⁻¹; percent of the fluorescence intensity decrease reversed over 180 sec by 1 uM unlabeled polypeptide [9]: < 10%; Kd [10]: < 0.00026 µM; Kd [11]: < 0.0026 µM

Question: For “AFHADD (HADD labeled with Alexa 488 on the N-terminal cysteine) (domain or fragment)”, which kon [6] is on record?
Answer: 9.7e+06 M⁻¹ s⁻¹

Question: What about the kon [7] of the same compound?
Answer: 430000 M⁻¹ s⁻¹

Question: What about the koff [8] of the same compound?
Answer: < 0.001 s⁻¹

Question: And the koff [12]?
Answer: < 0.001 s⁻¹

Question: And the percent of the fluorescence intensity decrease reversed over 180 sec by 1 uM unlabeled polypeptide [9]?
Answer: < 10%

Question: What about the Kd [10] of the same compound?
Answer: < 0.0001 µM

Question: What about the Kd [11] of the same compound?
Answer: < 0.0023 µM

Question: With “AFBbk32 (Bbk32 labeled with Alexa 488 on the N-terminal cysteine) (domain or fragment)” as the compound, how does the kon [6] read?
Answer: 2.4e+06 M⁻¹ s⁻¹

Question: What about the koff [7] of the same compound?
Answer: 0.036 to 0.041 s⁻¹

Question: And the kon [7]?
Answer: 180000 M⁻¹ s⁻¹

Question: What about the koff [13] of the same compound?
Answer: 0.033 s⁻¹

Question: What about the koff [9] of the same compound?
Answer: 0.025 s⁻¹

Question: What about the Kd [14] of the same compound?
Answer: 0.014 µM

Question: And the Kd [15]?
Answer: 0.14 µM

Question: For “AFFRD (FRD labeled with Alexa 488 on the N-terminal cysteine) (domain or fragment)”, which kon [6] is on record?
Answer: 4.1e+06 M⁻¹ s⁻¹

Question: What about the koff [7] of the same compound?
Answer: 0.027 to 0.039 s⁻¹

Question: What about the kon [7] of the same compound?
Answer: 290000 M⁻¹ s⁻¹

Question: What about the koff [13] of the same compound?
Answer: 0.013 s⁻¹

Question: And the koff [9]?
Answer: 0.021 s⁻¹

Question: And the Kd [14]?
Answer: 0.0031 µM

Question: And the Kd [15]?
Answer: 0.07 µM

Question: What about the koff [16] of the same compound?
Answer: 0.02 s⁻¹

Question: Which IC50 [17] does the source give for “Bbk32, unlabeled (version with the N-terminal cysteine) (domain or fragment)” here?
Answer: 0.03 µM

Question: What about the percent of b-FUD binding to FN left at 1000 nM Bbk32 [17] of the same compound?
Answer: > 60%

Question: For “FUD, unlabeled (version with the N-terminal cysteine) (domain or fragment)”, which IC50 [17] is on record?
Answer: 0.01 µM
